According to the supplement of paper PMC10567573:

B1: WSB1 (parent)
chain: FSHDGLHVASLADDKMVRFWRIDE

Variants of: B1
Assay: protein stability index of a GFP-peptide fusion (GPS, HEK-293T) (PSI 1-6); higher = more stable
Conditions: c terminus: a fixed tail appended
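Also: lentivirally expressed fusions sorted by FACS into six bins by GFP to DsRed ratio, PSI derived from sequencing read proportions per bin multiplied by bin number.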

Protein stability index, by site and new letter:
A9: Q 1.89; V 2.55; C 2.51
D14: E 1.58; N 2.03; M 1.97; F 2.93; I 3.14; L 1.58; P 2.05; W 2.53
D4: L 1.53; P 2; T 2.1; K 1.8
R21: K 2; I 3.26; Q 1.44; S 2.12; N 2.15; A 1.39; E 1.8; G 1.47; L 1.59; T 1.17; H 2.42
A12: V 1.75; Q 2.55; D 2.32; N 2.43; W 1.23; L 2.04; T 1.79
G5: T 2.27; E 2.67; Q 2.15; L 1.74; D 3.16; C 1.34; Y 1.27
F1: N 3.25; Q 3.9; G 3.43; M 3.81; D 4.46; H 3.01; W 2.3; T 3.73; I 2.89; Y 2.49; S 3.33
S10: I 1.69; A 1.74; L 1.87; D 2.03; G 1.65; P 1.63; T 1.64; Q 1.82; K 2.84
H7: R 3.03; G 1.4; I 2.17; K 1.17; T 1.65; N 1.68; D 3.61; Q 1.08; E 1.84; F 2.87
L6: N 3.26; T 1.67; K 1.65; H 2.27; M 2.41; Q 2.33; R 1.92
R18: Q 2.01; M 2.37; I 2.23; A 1.41; L 1.32; D 2.03; P 1.83; Y 1.89
M16: S 2.12; P 2.05; L 1.56; V 2.88
D23: L 2.35; W 2.11; F 2.1; R 1.45; P 3.58; H 1.85; Q 1.9; I 3.06; Y 1.34; V 1.81
W20: P 2.6; D 3.51; K 2.69; E 3.18; S 2.7; F 2.09; I 2.85; N 2.66; Y 2.26; C 2.42
S2: L 1.58; Y 1.83; P 1.69; F 1.97; N 2.78
D13: E 1.31; A 1.02; L 2.13; N 2.09; C 1.02; T 1.36; W 2.68; H 3.41; R 1.42
V17: Q 2.14; S 1.54; I 2.42; H 1.51; T 1.56; R 2.03; C 3.55
H3: Q 2.03; V 1.11; E 1.71; L 1.37; M 1.79; T 1.89; A 2.89; N 1.92; W 1.62
F19: S 2.42; K 2.38; W 1.57; Y 2.33; Q 2.03; E 3.92; P 2.65; G 2.38; A 2.27; M 3.75
V8: H 1.83; R 1.84; C 1.38; Q 3.68; T 1.86; K 1.1; L 1.53; G 1.75; N 1.68; E 2.59
I22: H 2.31; Y 1.69; P 2.64; E 2.54; T 1.65; D 2.27; S 1.66; W 1.77
